Substrate in series [1]: Oc1ccc(Br)cc1
The series can be described thus: purified protein. Particulars: reduced methyl viologen 0.5 mM / Ti(III) citrate 1.4 mM, 100 mM Tris-HCl pH 7.5, 22 °C, no NH4+, kcat at Table 1.

Substrate in series [2]: Oc1ccc(Br)cc1Br
The series can be described thus: purified protein. The settings on record: reduced methyl viologen 0.5 mM / Ti(III) citrate 1.4 mM, 100 mM Tris-HCl pH 7.5, 22 °C, no NH4+, kcat at Table 1, kcat includes further reduction to phenol.

The Km is the substrate concentration at which the rate is half of its maximum. Usually kcat stands for the maximal rate divided by the concentration of active sites.

B1: PceA (PceA–Strep) (Sulfurospirillum multivorans) (protein)
chain: AEKEKNAAEIRQQFAMTAGSPIIVNDKLERYAEVRTAFTHPTSFFKPNYKGEVKPWFLSAYDEKVRQIENGENGPKMKAKNVGEARAGRALEAAGWTLDINYGNIYPNRFFMLWSGETMTNTQLWAPVGLDRRPPDTTDPVELTNYVKFAARMAGADLVGVARLNRNWVYSEAVTIPADVPYEQSLHKEIEKPIVFKDVPLPIETDDELIIPNTCENVIVAGIAMNREMMQTAPNSMACATTAFCYSRMCMFDMWLCQFIRYMGYYAIPSCNGVGQSVAFAVEAGLGQASRMGACITPEFGPNVRLTKVFTNMPLVPDKPIDFGVTEFCETCKKCARECPSKAITEGPRTFEGRSIHNQSGKLQWQNDYNKCLGYWPESGGYCGVCVAVCPFTKGNIWIHDGVEWLIDNTRFLDPLMLGMDDALGYGAKRNITEVWDGKINTYGLDADHFRDTVSFRKDRVKKS
In the case of B1, the Km in series [1] amounted to 99 µM; in series [2] it was 95 µM. In addition, the kcat in series [1] came to 809 s⁻¹; in series [2], 252 s⁻¹.

These data come from paper PMC5500849, “Cobamide-mediated enzymatic reductive dehalogenation via long-range electron transfer” (Nature Communications, 2017).
